This series addresses p53D30 (human p53 residues 1-362) (Homo sapiens, UniProt P04637 SEQ:1-362). As to the kind of experiment: EMSA; 50 mM Tris-HCl, 50 mM NaCl, 5% glycerol, 0.1% Triton X-100, 10 mM DTT, 50 ug/ml poly(dI-dC), pH 7.6, 22 C; monoclonal antibodies included as mentioned; gel result not shown in the text. The following applies: chain copies: 4; label: 33P 5' end; HindIII-compatible 5' overhangs. As to the method: A 20 μl reaction volume containing 50 mM Tris. HCI, 50 mM NaCI, 5% (v/v) glycerol, 0.1% (v/v) Triton X-100, 10 mM DTT and 50 μg/ml polydeoxyinosinic-deoxycytidylic acid–pH=7.6 (binding buffer) are incubated for 30 min at 22° C. in the presence of the indicated amounts of p53D30, of radiolabelled oligonucleotides and of the mentioned monoclonal antibodies. Reactions are loaded onto a native 4% polyacrylamide gel containing 0.5×Tris.HCI–boric acid–pH=8.0 which had undergone pre-electrophoresis at 200 V for 45 min at 4 ° C. Electrophoresis is continued at 200 V from 90 to 120 min at 4° C. Gels are dried prior exposure to X-ray film (Amersham Hyperfilm-MP).
A general note: A gel shift assay detects complexes by their altered migration in electrophoresis.

Sequence of p53D30 (human p53 residues 1-362) (P04637 1-362): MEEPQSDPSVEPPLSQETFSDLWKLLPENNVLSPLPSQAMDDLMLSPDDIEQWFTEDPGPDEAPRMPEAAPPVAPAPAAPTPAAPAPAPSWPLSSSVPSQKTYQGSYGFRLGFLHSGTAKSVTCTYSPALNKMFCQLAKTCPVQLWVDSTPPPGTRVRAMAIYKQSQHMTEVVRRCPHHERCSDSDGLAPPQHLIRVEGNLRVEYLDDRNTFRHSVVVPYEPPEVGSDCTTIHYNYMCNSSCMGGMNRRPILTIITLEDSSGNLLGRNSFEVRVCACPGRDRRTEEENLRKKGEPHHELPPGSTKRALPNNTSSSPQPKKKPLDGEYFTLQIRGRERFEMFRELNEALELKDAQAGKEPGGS

B1: p53 consensus site oligonucleotide I/II (dsDNA)
DNA 1: AGCTTAGACATGCCTAGACATGCCTA
DNA 2: AGCTTAGGCATGTCTAGGCATGTCTA
As to B1, the binding result is listed as “binds”.

Values taken from patent US6492116, “Assay for identifying inhibitors of the interaction between proteins p53 and dm2” (Cancer Research Campain Technology Ltd.).
